The values below come from PMC13078783.

The target in this test is GFP-MAP7 (UniProt O88735). Put plainly: co-IP; HeLa cells transfected with GFP/GFP-MAP7, HA-KLC2 and HA-KIF5C (WT, ElbowLock, DeltaElbow); GFP-TRAP beads; western blot with anti-GFP and anti-HA. On the technique in general: Immunoblotting shows a protein as a band on a membrane.
Sequence of GFP-MAP7 (O88735 whole entry): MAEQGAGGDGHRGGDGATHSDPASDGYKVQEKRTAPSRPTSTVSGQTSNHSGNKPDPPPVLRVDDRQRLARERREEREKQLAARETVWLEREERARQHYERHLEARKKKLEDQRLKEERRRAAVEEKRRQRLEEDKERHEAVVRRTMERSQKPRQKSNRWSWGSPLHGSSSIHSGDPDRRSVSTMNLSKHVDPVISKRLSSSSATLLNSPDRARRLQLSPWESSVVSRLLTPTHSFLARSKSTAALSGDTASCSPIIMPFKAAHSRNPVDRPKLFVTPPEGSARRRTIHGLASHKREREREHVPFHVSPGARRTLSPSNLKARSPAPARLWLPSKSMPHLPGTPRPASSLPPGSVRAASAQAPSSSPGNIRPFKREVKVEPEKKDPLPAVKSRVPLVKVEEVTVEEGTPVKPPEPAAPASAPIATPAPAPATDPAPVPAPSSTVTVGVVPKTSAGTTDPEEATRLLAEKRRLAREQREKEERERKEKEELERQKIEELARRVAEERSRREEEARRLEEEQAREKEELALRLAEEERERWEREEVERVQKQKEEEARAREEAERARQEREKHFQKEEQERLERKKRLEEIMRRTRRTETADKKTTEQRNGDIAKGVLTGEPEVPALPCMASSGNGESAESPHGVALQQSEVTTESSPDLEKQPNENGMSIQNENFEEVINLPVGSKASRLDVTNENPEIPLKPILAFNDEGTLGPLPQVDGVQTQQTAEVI

“DeltaElbow kinesin-1 complex (HA-KIF5C DeltaElbow / HA-KLC2) (from UniProt P56536 1-955; O88448 1-599)” yielded a fold increase of kinesin-1 co-precipitated with GFP-MAP7 against wild-type or ElbowLock of 5 fold.
